Experimental data taken from patent US7618621B2, “Mammalian multipotent neural stem cells and compositions, methods of preparation and methods of administration thereof” (The Board of Trustees of the University of Illinois, priority 2002, dated 2009).

Columns and labels:
rat retina = test: Transplantation of pretreated NSCs into the rat vitreous cavity (opsin immunocytochemistry, human opsin ISHH); type: in vivo; conditions: FIG. 8(II); 8 days after transplantation to rat eye; NSCs exposed for four days to 20 ng/ml IGF-1, 100 ng/ml TGF-b3 or 10 ng/ml CNTF
human NSCs = test: Retinal differentiation of human NSCs in vitro (opsin immunocytochemistry); type: cell-based; conditions: for differentiation of NSCs into retinal cells (opsin staining): FIG. 7(II), serum-free differentiation, 20 ng/ml IGF-1, 100 ng/ml TGF-b3, 10 ng/ml CNTF; for differentiation of NSCs into opsin-positive cells: factor for 3 days before, or for 5 days during, spontaneous differentiation in serum-free condition, 50 ng/ml
Description: Two kinds of differentiation studies were performed: treatment of human NSCs with factors (i) before and (ii) during spontaneous differentiation under a basal media condition. In the first example, NSCs were differentiated under a serum-free differentiation condition in the presence of TGF-b3 (R&D, 50 ng/ml (1 ng/ml to 1 ug/ml)) and VEGF (R&D, 50 ng/ml (1 ng/ml to 1 ug/ml)) for 5 days in Lab-Teck II chamber slides (Nalge Nunc). The second example elucidated whether pretreatment of NSCs is sufficient to produce retinal lineages in these cells. The NSCs were treated with these factors for 3 days, and then differentiated for 5 days under the serum-free differentiation condition in the absence of these factors in the Lab-Teck II chamber slides. As a control, human NSCs were differentiated for 5 days in a no-factor treatment under a serum-free differentiation condition. After differentiation, cells were examined by double-immunofluorescent-cytochemistry (Kim et al., 2002, Proc. Natl. Acad. Sci. U S A 99: 4020-5) with antibodies in a combination of goat anti-GFAP (1:100, Research Diagnostics) and mouse anti-B-tubulin (1:700, Sigma) or mouse anti-opsin (1:200, Chemicon). […] No opsin-positive cells were detected in the spontaneous differentiation without TGF-b3 (FIG. 7b), the treated cells were positive for bIII-tubulin and GFAP (FIG. 7a).

MeSCs = test: Retinal cell differentiation of MeSCs with growth factor treatment; type: cell-based; conditions: without BrdU pre-treatment

IGF-1: insulin-like growth factor-1
differentiation of transplanted NSCs to opsin-expressing cells in vivo (rat retina): differentiated to opsin-expressing cells in vivo
differentiation of NSCs into retinal cells (opsin staining) (human NSCs): can differentiate into retinal cells

VEGF
differentiation of NSCs into opsin-positive cells (human NSCs): no opsin-positive cells were detectable
retinal cell-differentiation of MeSCs (MeSCs): not sufficient to confer retinal cell-differentiation

B1: TGF-b3: human recombinant transforming growth factor beta 3 (R&D) (protein, UniProt P10600 301-412, looked up)
Transforming growth factor …: ALDTNYCFRNLEENCCVRPLYIDFRQDLGWKWVHEPKGYYANFCSGPCPYLRSADTTHSTVLGLYNTLNPEASASPCCVPQDLEPLTILYYVGRTPKVEQLSNMVVKSCKCS
differentiation of transplanted NSCs to opsin-expressing cells in vivo (rat retina): differentiated to opsin-expressing cells in vivo
differentiation of NSCs into retinal cells (opsin staining) (human NSCs): can differentiate into retinal cells
differentiation of NSCs into opsin-positive cells (human NSCs): differentiated into opsin-positive cells
retinal cell-differentiation of MeSCs (MeSCs): not sufficient to confer retinal cell-differentiation

B2: CNTF: ciliary neurotrophic factor (protein, UniProt P26441 1-200, looked up)
Ciliary neurotrophic factor: MAFTEHSPLTPHRRDLCSRSIWLARKIRSDLTALTESYVKHQGLNKNINLDSADGMPVASTDQWSELTEAERLQENLQAYRTFHVLLARLLEDQQVHFTPTEGDFHQAIHTLLLQVAAFAYQIEELMILLEYKIPRNEADGMPINVGDGGLFEKKLWGLKVLQELSQWTVRSIHDLRFISSHQTGIPARGSHYIANNKKM
differentiation of transplanted NSCs to opsin-expressing cells in vivo (rat retina): differentiated to opsin-expressing cells in vivo
differentiation of NSCs into retinal cells (opsin staining) (human NSCs): can differentiate into retinal cells
